According to publication PMC12484072:

Target: SaNsrP, transmembrane permease of the BceAB-type ABC transporter SaNsrFP from Streptococcus agalactiae (S. agalactiae)
Assay: SAXS

SaNsrF, nucleotide-binding domain of the BceAB-type ABC transporter SaNsrFP from Streptococcus agalactiae (natural protein)
stoichiometry N: 2
